The values below come from patent publication US20100183588A1 (IVS INSTITUT DES VAISSEAUX ET DU SANG, published 2010).

The assay deals with UNC5H4 receptor of the pericytes and smooth muscle cells. As to the kind of experiment: cell-based or functional assay.

B1: mutated netrin 4 (SEQ ID NO: 522), recombinant protein (ligand)
chain: LSGVAGVSSRCEKACNPRMGNLALGRKLWADTTCGQNATELYCFYSENTDLTCRQPKCDKCNAAYPHLAHLPSAMADSSFRFPRTWWQSAEDVHREKIQLDLEAEFYFTHLIVMFKSPRPAAMVLDRSQDFGKTWKPYKYFATNCSATFGLEDDVVKKGAICTPKYSSPFPCTGGEVIFKALSPPYDTENPYSAKVQEQLKITNLRVQLLKRQSYPCQRNDLNEEPQHFTHYAIYDFIVKGSCFCNGHADQCIPVHGFRPVKAPGTFHMVHGKCMCKHNTAGSHCQHCAPLYNDRPWEAADGKTGAPNECRTRKCNGHADTCHFDVNVWEASGSRSGGVCDDCQHNTEGQYCQRCKPGFYRDLRRPFSAPDACKPCSCHPVGSAVLPANSVTFCDPSNGDCPCKPGVAGRRCDRCMVGYWGFGDYGCRPCDCAGSCDPITGDCISSHTDIDWCHEVPDFRPVHNKSEPAWEWEDAQGFSALLHSGKCECKEQTLGKAKAFCGMKYSYVLKIKILSAHDKGTHVEVNVKIKKVLKSTKLKIFRGKRTLYPESWTDRGCTCPILNPGLEYLVAGHEDIRTGKLIVNMKSFVQHWKPSLGRKVMDILKRECK
With B1, the “VSM migration: chemotactic activity relative to non-mutated netrin 4” value is 3000 fold over non-mutated netrin 4 and the “VSM proliferation: mitogenic activity relative to non-mutated netrin 4” value was 1000 fold over non-mutated netrin 4.
